Earlier results on one substance are cited in PMC6800417.

This data set addresses EGFR (Homo sapiens) (UniProt P00533).

Turning to 111In-DTPA-hEGF (from UniProt P01133), the dissociation constant (Kd) (usually the free concentration of one partner at which half of the binding sites on the other are occupied at equilibrium, for simple one-to-one binding) was 1.3 nM.
